Results taken from PMC2566879.

Assays:
[1] = molecular target: histone H3/H4 tetramer coupled to the SPR sensor chip (UniProt P84229); test: SPR
[2] = molecular target: histone H1 coupled to the SPR sensor chip (UniProt P02253); test: SPR
Chain of UniProt P02253 (P02253 whole entry): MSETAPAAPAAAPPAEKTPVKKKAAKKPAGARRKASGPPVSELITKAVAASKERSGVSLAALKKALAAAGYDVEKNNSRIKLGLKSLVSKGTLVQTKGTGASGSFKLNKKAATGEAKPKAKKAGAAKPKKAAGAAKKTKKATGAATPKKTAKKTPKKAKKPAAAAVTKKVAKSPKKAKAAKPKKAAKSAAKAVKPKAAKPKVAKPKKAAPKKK

Kd [1]: 0.237 µM | koff [1]: 0.000691 s⁻¹ | kon [1]: 2920 M⁻¹ s⁻¹ | Kd [2]: 0.0138 µM | koff [2]: 0.000198 s⁻¹ | kon [2]: 14400 M⁻¹ s⁻¹
Substance: recombinant human somatic NASP (nuclear autoantigenic sperm protein), NH2-terminal 6His tag (from UniProt P49321-2 1-449) (natural protein)
